# Assay results reported in the domain aggregation screens of Martell et al. (2025).
# Test: soluble fraction after stress (log2 fold change); higher = more stays soluble; pooled small domains, quantitative proteomics
# Details: stress: 50 degC
# Summary of the method: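 The stress applied to every library was 50°C. These custom libraries of small protein domains were pooled and measured at high throughput with quantitative proteomics as the read-out. Aggregation propensity is expressed as the base-two logarithm of the fold change in how much of each protein remains soluble. The higher the value, the more of that protein stays in solution.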
row,Sequence,soluble fraction (log2)
1,HMYHADLIGLRVETAAGEKLGTVKAVHNFGAGDVIEITGAEDKDGLMVPFTAEVVPEVDIENGRIVVS,-0.331
2,HMERAYGVRVSLRLDDPFRTLLGADWSRTHWFASAEERDAALLEMSRKHEFSRPGDQPALVYEKVQN,-0.728
3,HMNTLPASVQPKKGRLYAVIQTKENGKSKPVWRSLGLPEGSNKSKVNKAFREVVKQFEEEYAERLAR,0.0511
4,HMYEVDGLGIRIAQLRKKQDLTQEAFARTLGVSPQAVSKWETGIGYPDITLLPQIAKELGVSIDQLFGRN,0.065
5,HMRRNLSGEDTIVNRMAQWQYTQEQKNELHKMMDAGMPQEDILSVFYPEIKAEEMHRFLLAFQTAHNSG,-0.162
6,HMEATILTATPEAAGQRLDAFLAETLPELTRSAAQRLIAEGQVAVDGKIPTKSLKLAGGETVSVRLPEPE,0.275
7,HMKYPVYLQLADLIERKINKNEYPLGSKIPSERELIDAFGISRMTVRKAIEVLIEKGLLTRQHGKGTYVSQ,-1.29
8,HMYDAEAINKFFDIENWDFGETFYFQELSAYIMNQLSPKLVTILIVPRQTTQAFGSLFEIKSEPDEIFAS,-0.107
9,HMAAGKGVTTGSVRLRKGSNTDSAIIATLKKDTELILYGKKDGWYSVKTSDGTEGFVSSKYVKVTEAY,0.313
10,HMLNEIMDTINKYISDKRNNKVAQNILSAALDELNSQIRVGLKDLNPHSIEEFKENVINSPYIEFEQG,0.046
11,HMKKIYEEVSEAILTMIKNGTLKPGDKLLPVHQLAEQFQVGRSAVREALSALRAMGLIEMKQGEGTYVKNF,-0.462
12,HMGPDALSIGRRVRQVRTARGMTLDELAAAVSRAPSQLSMIETGKREPKLSLLQAIARALGTTIDALLT,-0.176
13,HMNRNHVFDSNGPDLRLRGTAQQLFEKYLQLGRDATSGGDRVMAEGYFQHAEHYFRILNAMNQAAMQH,-0.68
14,HMENVIYGINGPVVTVRNSRSFSMMEMVFVGNERLVGEVIGITDKITTIQVYEETTGLRPGEPVYGTGSPM,-3.97
15,HMGRRDLSWQPAAGGVSIDGLKAGEAWTLFGLNGRILKQGYAPEGQMSLAVNAGLFVLRGAESGVIRIAVA,-1.25
16,HMAFKEQLKAARLAKGYTQEQLATAIGVAKSTFTGYEKGNSEPNMLTIKKLMEILEVDANYLWY,-2.49
17,HMGGSLADAKRFLADLLADGPVPAKGVRADADGAGHTWPTIRRAQKALGIEATKTGMKGGWVWALPR,-0.034
18,HMSSKSLAALSPQEYRLLPLVAEGKTNKEIASALALSDKTVKNYLANIFSKLGITRRTQAATLYARAL,-0.167
19,HMAVVQMVDRPGGLDELLKDVVRAGVNFANAYGRTASDGNSAFFVIDIQDIPGARQKLADVGLQILADEAV,-0.192
20,HMSKEKQILQLLQHGYSQRRIADTLSVSRNTVAKVAKAAIEHPVSSDSLDSIDELELHQKLFPEEVLI,-0.339
21,HMSRREEALIALAQRVARQVARTKQPVTLEPMPANERRVIHVALRDNPDVETRSSGEGDQRRVTVYPRQ,0.05
22,HMKEIIFRGIGEFILDYKSLVIEFLNKNNYANLSMDAPVDEVNKAVANNMLNEDFVTELLLFQRRVE,-1.2
23,HMYEDSNQSLNFFAIKFIKEKNIKISQETTNLIVERARGDRGNLINELQKLEALSLTRKKITQEDVFNLTN,-0.774
24,HMSVSVNAPMPGNILDVRAKTGESIQKGQVIVILEAMKMENEIMAPQDGKISSINTSKGSTVNSGDLLFTM,-0.155
25,HMYVYEPGEFAVRGSILDVYSYASEFPYRIDFFGDDVESIRTFEVQTQLSKEAKDRVSIVPDTEQ,-0.181

row,Sequence,soluble fraction (log2)
1,HMRMLLEERLDEIVKIVNERGSISNQELVKMFGASESTIRRDITTLANDNRVIRVHGGAMSVVS,-0.0564
2,HMATGIKAVDNVFGWMNLEQVAKTVGLDIPSVLRASGLPEDTPVDISIKKIPGVDDEELKDSLRQYIEKS,0.0213
3,HMHNQIGDKIRELRTRSNLTQADLGKLVGVSMQAVSKWERGGTPDIDVLLSVAKYFNISLDEMVGRT,-1.08
4,HMLSLGQQIRNHVLSRIESGEWPEGSRIPSEAKLVELLGASRMTIHIALRDLSAEGVLLRKQGAGTFVAPR,-2.47
5,HMDKEVLYVTVNDKKVKLDGKNHIFIDIFNYIDFDIKKPNGSIVLKLNGKNAGYMDEIKDGDKIEIYWDK,0.0969
6,HMKMLKAPIPGTIIEVKVNPGQTVNDGDVAVVLEAMKMESDIHFNSSGKVKKIHVNKGDSVQEGDDLIELE,0.0938
7,HMGKVNGFEITVIEGKNVVGSITPRQAIAKNSDGVIQLRGEQSFSATDQVLINELAFYIKSNNLKA,-0.949
8,HMTLSAPMPGTVLKIHVKEGQRVRKGQTLVVLEAMKMEHRIQAPKAGEVTNLHFSEGDRVDMGEILVEIG,0.0894
9,HMWQVVEVDYGTFMSMTEDGQVGRVEIQEQENLILFTDQEETTVYKTAMVDDPDLTARLHDAGIPFYGQE,-0.64
10,HMLASDYEEELSVLIKMSHKIAAGDDSLMDDFNDRVTMFESSYPINKATKDLTPVLERVNKFQT,-0.346
11,HMTKEGVNISITADGVQLSTESPNRVSIFNVNGTKVWEGIAPANVSLQKGVYILQTANGNTKFV,0.265
12,HMKNYYEVLGVPRDAAAPDIKRAFRKLAKQFHPDHNPGDAKAEERFKLVSQAYDVLGDEEKRKLYDQFGE,0.173
13,HMSDKEDIDKYLLTYGDLLFNRTNSSEWVGKTAIYRGEVSAIYAGYLIRIRSFLDAEYLNSVMNSKYA,-0.235
14,HMLEKDIGKAITILRKSYQLSISAFSMRTGYSRVHISEVESGKRKATDELISVIRNVFHLDSNWPF,-1.47
15,HMGDEVAVTEILVKVGDTVEADQSLLTVEGDKASMEVPAPFAGVVKAIQVQLGDKVVTGSPIMLFEV,-0.00831
16,HMETGLSNYEFKRIREQAEALLSDGQVRRINDLVDSIKNENAEKVIRVIRFLIDTEELILEDDRVSAKKS,-0.0558
17,HMKEDNPIVLINLQAKEGEWVFKGTGLPYVGKYHQHKNGEYMIGIGVLNLNHELKPDEIIIPNPNK,-0.109
18,HMEEMADILKTRIDTLDLSTRTLNALTGANIRTVGGIARKKKEDLLELAGMGEKGIQEIKKVLGGFGITL,-0.0181
19,HMPVEQVWHIAEAGKTKGPFSRASMGRMSADGALTRDTLVWTAGQDGWKKAADVTALATLFT,-0.0223
20,HMLISAESVKRRLEMIRHLILLGDYEDVTAQVIKLNPAANEYKLTPIIEELNGGKYQEALEKINSYLSKF,0.0802
21,HMNALTEAESKLLERMNKAGIHAEITTKKAAGILQRSENGARTVLNSLVKKGYLTVETNKAPYIYHLH,-0.11
22,HMTPQEQWNNAYLLAKDYYDANGNLDIDEKYKTKDGFELGSWLTTQRNVYKRGKLSPEKTKKLEEIGISF,0.128
23,HMDHFFSKYDSIVNHTVQKKETLFGISKKYGLTINEVIKFNPGIQIDKLKRRSVLIIPLMKKN,-0.917
24,HMALSLPDDMTIVRKDGSSLEVRLKSRTVTEIHFERISDSETFQFSIDQLDETTRELVEQYPVM,-0.0919
25,HMWMQKILGNYIAARRKELGMTQANLAEKIHVTDKAVSRWERGVGLPDIENLEALAKALEVSLVSLMQGKT,-1.59

row,Sequence,soluble fraction (log2)
1,HMVSNFEAEFGRHFAIFFPGSEFTELKLRLLEEGAELIDPIRDTPFERFFFKDPNGYIFEVIDKE,-2.28
2,HMGGEEPYGSGSLRLAAGAVVPSGYTIKGNEDSMLYHTTESPWYKQTIAEVWFNAESAAQRAGFTRWDAKD,-0.114
3,HMANKTISMTTLKLVIQQLSKGISRQSISAQYHISRNTIKKYEKRIKAMDMKIEDILKLSDEEISNLLQ,-1.68
4,HMLAEEDRRRAERPGLDGNAVMVHLGIGPGRHVGEALAFLLEVRRSEGDLAVAELKSRIDAWWADR,-2.59
5,HMEITSSNELKKMISNLINSENKNNPISDSNIVEKLKENDFLVARRTVAKYRKLLGIKNVNQRKE,-0.112
6,HMANKQLQEKLKNYISENGSLSSAAKAIGLSPATLSTYLKDKYEGNVANVETRLTEIFETVEAANNLL,-0.258
7,HMNNYNDSVQKIINYIADNLNENLSVRKLADKMPMSVSHFNRVFQKYTGDSPYAYVMAMRIKKAKYL,0.0162
8,HMYMKLSVKDAALFLSVSPETVYRWVKQEEIPYHTVNDQLRFNRAELLEWATARSLEVSPDLFVP,-3.04
9,HMDSEQLSGLVNMGFSVYQAKTALEMFDNDIERAANYL,-0.425
10,HMNTPAENFDKAVEKYKSTNSATEKDAAFKVIEDEWIKLSDEEKKERQDEYDSIFESEGDRV,0.126
11,HMLVNNSTIETVIDFANVKFGMELTKDQVSEQLRNLSFSQTLKLINSMKADDNDAFSEIIDL,-0.672
12,HMVKLSDGIVEHIKSLIMAGRLKPGDKLPPEREFAATLGVSRTALREAVRTLSLMGLLDARQGEGTFVSG,-0.116
13,HMENINIRNMGIRAVEAAIISLSPDQRTFTWGATNKKLVTVPYEENPYSALAAFFKTDDGIEIYDAIEKRL,-0.892
14,HMKNKIYGTIVSSTSGEETVYKVFQVDSSKDITYLFRPDMIRLAHENNQALEFNEETGRGKRIEMSDLPK,0.0213
15,HMAPTVPEVVRLEEGAARSAIEAAGLSVGSVEFRASSDPAGTVLATRPIAGRKVRPSSAVDLVLSDGRTP,0.0905
16,HMLETADDAKRFLGAIISEKKAENLLRVYPDIIERIVAGKPVDLSLVKGIKQKTFDKLRQKVISHYSMY,0.119
17,HMNILKKDKRLWDENNLNKPLLFELLENYDKEIFELLLTDKDIKAKFFVQAGESYVFKYDDFRFAIEQN,-0.702
18,HMTIEEMAIENINFSTQLLYKAMKYNGVNTVGDLLEKARSKKDLLTMAYIGNKEAEEIIEKLSELGITI,-0.23
19,HMETFEKIKELAKKRGKALGQVEEDLGYGRNTLYKIKNSTPNAERIAEIANYFNVSTDYLLGRTDNPTIAK,0.203
20,HMNKEIEDYVATYSSMKAKEAAAIFDTMTSDLDLVAKILEAMSADDRAKILEQMNEENAARLTKMMD,0.21
21,HMKIPQFAVIKQYLEQQIKTAQWAPGRQIPTEQSLADTFSVSRMTARRAVQQLADAGLLERTQGSGTFVAD,-0.145
22,HMKILALETSAKAVSAAVSENGRILASGYQDTGLTHSRTLMPIVEHILKNTDLKLSDMDAIAVAVGPG,0.211
23,HMSGEITVPNLIGVEAIQAKTLLIQAGFLIKEFYDLDSTQPAGVVIRQAPEAGTTQTIGKSVTITINKQ,-0.00644
24,HMGTKVGAPLPGTITEVKVKVGDTVKAGDAVIILEAMKMQNNIEAEVSGTVSSVLVKEGDTVMEGDALITI,0.144
25,HMRTDTIINSGGLKINPEEVENEILKSLGDNNFFIDKIKNDKFGEEIILIALKKIKINLLIESLNLI,0.0394
